B3: Chlamydomonas reinhardtii IFT74(128‐C) (domain or fragment, UniProt Q6RCE1 128-641, looked up)
chain: GVGRQVLDKNYFMNELRQKRMEIAQVTSNMKSDLEALERKQAQYNSMDKRASDLSKEVKILQEALADYNTVLDKVGSQAPVYVIQQEFAALKDRNEQQRKRVDEVLTERLNLESKAKQAESKMSEIQASMDQRLNSMPPSQRNEYTTLVAEQQQLQADSKRFEEVLDELDKALQASEGELARNPFKQRSLQLQEQIRALTEKKYELTEEERQSKRSPEELRADLMAKIKRDNTEVEQMTQQIRELQDQIKKMEERVKSLGGATSGAAAAEEKANREKFEELLAKERDLNNFMDGFPSRKAAKMQEKQQKEDGIVGVLEKMVKMQGIIGSNLPSQKKYKEMQDELEYKKMQLENTQTTQERLKEELTMRRTELEKIDTLEDKIKLELTQLAERQEAMEKEMGEFGSVEDIQRKANAARERMEGLRSVLLKRKDLLRSIVAERGLKFQAKRAQLQDHNLQVQLEKMEAKLKNLSAGVFEMDEFIKAKESETNYRQLASNIAALVDDLNVHVKKAVV

The target of test [1] is T1, Chlamydomonas reinhardtii IFT81/74(128‐C) heterodimer (Chlamydomonas reinhardtii, UniProt Q68RJ5 1-683; Q6RCE1 128-641).
T1 sequence (looked up) 1: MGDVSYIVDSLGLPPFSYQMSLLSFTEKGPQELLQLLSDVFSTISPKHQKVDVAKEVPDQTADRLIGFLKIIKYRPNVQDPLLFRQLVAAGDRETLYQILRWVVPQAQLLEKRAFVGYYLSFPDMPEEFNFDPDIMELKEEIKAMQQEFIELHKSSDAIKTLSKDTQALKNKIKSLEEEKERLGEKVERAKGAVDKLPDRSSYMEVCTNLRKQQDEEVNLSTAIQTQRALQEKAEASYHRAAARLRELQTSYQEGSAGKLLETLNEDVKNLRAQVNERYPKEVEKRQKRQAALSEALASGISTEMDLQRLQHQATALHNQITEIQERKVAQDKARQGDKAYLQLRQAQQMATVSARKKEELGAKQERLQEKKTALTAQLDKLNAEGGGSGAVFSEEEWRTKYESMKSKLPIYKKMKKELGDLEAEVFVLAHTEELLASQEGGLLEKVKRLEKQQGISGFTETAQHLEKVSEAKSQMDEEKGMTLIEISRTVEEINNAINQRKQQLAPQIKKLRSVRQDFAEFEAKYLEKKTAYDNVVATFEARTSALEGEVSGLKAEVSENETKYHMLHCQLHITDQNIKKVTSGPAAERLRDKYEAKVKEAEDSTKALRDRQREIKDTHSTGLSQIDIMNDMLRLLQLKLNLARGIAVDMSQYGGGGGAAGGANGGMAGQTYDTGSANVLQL
T1 sequence (looked up) 2: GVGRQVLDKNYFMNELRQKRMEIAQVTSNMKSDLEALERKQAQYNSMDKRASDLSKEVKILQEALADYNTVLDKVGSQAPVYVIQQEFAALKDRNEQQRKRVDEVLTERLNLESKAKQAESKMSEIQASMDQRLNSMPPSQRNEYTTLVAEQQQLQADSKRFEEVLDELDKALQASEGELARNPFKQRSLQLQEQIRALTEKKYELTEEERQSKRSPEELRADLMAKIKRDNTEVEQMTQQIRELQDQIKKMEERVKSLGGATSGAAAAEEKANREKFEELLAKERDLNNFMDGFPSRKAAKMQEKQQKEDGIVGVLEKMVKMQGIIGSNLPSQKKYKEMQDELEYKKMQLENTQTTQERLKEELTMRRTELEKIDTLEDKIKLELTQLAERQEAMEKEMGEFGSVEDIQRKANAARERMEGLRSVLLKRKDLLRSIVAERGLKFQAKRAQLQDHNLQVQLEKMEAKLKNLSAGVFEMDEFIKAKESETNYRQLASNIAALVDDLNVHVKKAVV
In words: cross-linking.

Test [2] deals with T2, Chlamydomonas reinhardtii IFT81 (Chlamydomonas reinhardtii, UniProt Q68RJ5 1-683).
T2 sequence (looked up): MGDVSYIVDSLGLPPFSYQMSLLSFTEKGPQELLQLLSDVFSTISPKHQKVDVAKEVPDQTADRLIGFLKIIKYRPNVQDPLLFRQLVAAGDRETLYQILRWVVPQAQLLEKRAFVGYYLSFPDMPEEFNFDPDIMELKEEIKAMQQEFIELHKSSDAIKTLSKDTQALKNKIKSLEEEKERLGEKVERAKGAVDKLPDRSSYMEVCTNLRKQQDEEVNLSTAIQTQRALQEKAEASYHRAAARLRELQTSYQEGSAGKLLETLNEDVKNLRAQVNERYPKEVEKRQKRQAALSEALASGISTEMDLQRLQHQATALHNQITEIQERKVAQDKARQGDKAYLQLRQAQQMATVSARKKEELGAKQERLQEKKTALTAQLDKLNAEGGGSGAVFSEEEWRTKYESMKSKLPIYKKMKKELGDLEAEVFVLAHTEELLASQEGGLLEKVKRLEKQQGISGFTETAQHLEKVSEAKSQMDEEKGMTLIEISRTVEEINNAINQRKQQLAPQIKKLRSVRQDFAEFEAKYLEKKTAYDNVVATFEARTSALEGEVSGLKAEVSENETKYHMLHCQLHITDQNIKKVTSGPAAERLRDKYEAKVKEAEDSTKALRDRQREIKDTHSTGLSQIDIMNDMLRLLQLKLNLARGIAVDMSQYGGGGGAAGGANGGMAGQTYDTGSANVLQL
In words: cross-linking.

For test [3], the target named is B3. In words: cross-linking.
For the next test, the target named is T3, CrIFT172(1–968) (Chlamydomonas reinhardtii, UniProt Q5DM57 1-968).
T3 sequence (looked up): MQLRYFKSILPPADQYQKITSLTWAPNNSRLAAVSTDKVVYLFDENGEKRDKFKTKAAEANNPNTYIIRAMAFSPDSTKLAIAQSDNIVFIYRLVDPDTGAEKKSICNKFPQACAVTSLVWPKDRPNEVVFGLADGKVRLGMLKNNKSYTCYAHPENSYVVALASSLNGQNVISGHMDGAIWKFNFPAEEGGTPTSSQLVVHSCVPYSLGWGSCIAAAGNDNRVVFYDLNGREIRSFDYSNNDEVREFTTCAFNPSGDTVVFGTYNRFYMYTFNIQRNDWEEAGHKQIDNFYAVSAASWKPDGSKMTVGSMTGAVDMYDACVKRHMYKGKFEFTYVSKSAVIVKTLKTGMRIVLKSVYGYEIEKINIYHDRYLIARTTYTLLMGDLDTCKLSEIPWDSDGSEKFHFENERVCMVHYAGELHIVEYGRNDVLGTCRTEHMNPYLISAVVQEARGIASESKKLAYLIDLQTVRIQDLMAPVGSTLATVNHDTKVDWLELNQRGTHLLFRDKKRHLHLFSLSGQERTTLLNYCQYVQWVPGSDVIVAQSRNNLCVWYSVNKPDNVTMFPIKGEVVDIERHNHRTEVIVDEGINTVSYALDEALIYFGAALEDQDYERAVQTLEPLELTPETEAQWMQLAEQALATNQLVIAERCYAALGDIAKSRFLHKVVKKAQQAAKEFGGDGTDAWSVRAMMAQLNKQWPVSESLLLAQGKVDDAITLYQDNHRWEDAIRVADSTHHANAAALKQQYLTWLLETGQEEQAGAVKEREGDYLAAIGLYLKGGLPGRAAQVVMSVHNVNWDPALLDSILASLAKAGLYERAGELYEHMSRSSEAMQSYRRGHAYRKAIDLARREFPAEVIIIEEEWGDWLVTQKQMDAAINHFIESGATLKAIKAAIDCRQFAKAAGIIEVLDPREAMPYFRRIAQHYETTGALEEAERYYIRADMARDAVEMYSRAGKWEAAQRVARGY
In words: pull-down.

B1: Chlamydomonas reinhardtii IFT27 (natural protein)
chain: MVKKEVKPIDITATLRCKVAVVGEATVGKSALISMFTSKGSKFLKDYAMTSGVEVVVAPVTIPDTTVSVELFLLDTAGSDLYKEQISQYWNGVYYAILVFDVSSMESFESCKAWFELLKSARPDRERPLRAVLVANKTDLPPQRHQVRLDMAQDWATTNTLDFFDVSANPPGKDADAPFLSIATTFYRNYEDKVAAFQDACRNY
With B1, the binding result in test [1] is “binds”.

B2: Chlamydomonas reinhardtii IFT46(188–319) (domain or fragment, UniProt A2T2X4 188-319, looked up)
chain: QLRQLSKEAPGAKADMVGRLEHTDENKAKKIQQWIASINDIHKAKPAATVNYSKRMPEIEALMQEWPPEVETFLKTMHMPSGDVELDIKTYARLVCTLLDIPVYDDPVESLHVLFTLYLEFKNNPIFRQHME
Regarding B2, the binding result in test [2] and in test [3] was “binds” in each case. Take B3: the binding result in test [2] was “binds”.

B4: Chlamydomonas reinhardtii IFT25(1–136) (domain or fragment, UniProt B8LIX8 1-136, looked up)
chain: MKDYAREENGGLVVMASCSDERFPPENMLDGKDNTFWVTTGMFPQEFVLRLESCIRVSKITTLSLNVRKLAVEKCDQDKPDQFEKVFEVELANRGDRLQTEVHQVNIRAKYLKFILLQGHGEFATVNRVSVVGGDD
Take B4: in test [1], the binding result is “binds”.

B5: GST‐tagged CrIFT57(1–234) (domain or fragment, Chlamydomonas reinhardtii, UniProt Q2XQY7 1-234, looked up)
chain: MSSKRGGRSSLAKAPEEAVNGEAFAPEASPPPPGDDGDAGGEDGGAPAPPPPPATKGGPVAVGRSLEIQTTPDVCMEMLADKLKLLNYEADFCRKKKPYRKPLSRLYFAVPLANSSEQFFYFTSLATWLLGLAGVELPAPKEFDDPNLTCQNILGAVKKLGFAPPSYHPTKLTVGNGKEVVGVLDGLVDFVLERRHHKYSRPAYGNDGQPEEGVQLDDEAEAAAMEGADELAMP
B5: in the test with CrIFT172(1–968), the binding result was “binds”.

Source of the values: paper PMC9753473 (The EMBO Journal, 2022).
